Experiment in all cases: cell-based or functional assay
In assay [1] the target is non-H5 viruses (14 strains; H1~H13, Chicken NDV).
Assay [2] addresses H5 virus strains (thirty-four strains of H5N1 viruses).
Assay [3] deals with HA of H5N1 virus strain F3 (avian influenza virus H5N1).
The target in assay [4] is HA of H5N1 virus strain A8 (avian influenza virus H5N1).
The target in assay [5] is HA of H5N1 virus strain A1 (avian influenza virus H5N1).
Assay [6] has as its target HA of H5N1 virus strain B1 (avian influenza virus H5N1).
Assay [7] has as its target HA of H5N1 virus strain A6 (avian influenza virus H5N1).
The target of assay [8] is HA of H5N1 virus strain B6 (avian influenza virus H5N1).
The target of assay [9] is HA of H5N1 virus strain A2 (avian influenza virus H5N1).
The target in assay [10] is HA of H5N1 virus strain F2 (avian influenza virus H5N1).
The target in assay [11] is HA of H5N1 virus strain A3 (avian influenza virus H5N1).
Assay [12] has as its target HA of H5N1 virus strain A7 (avian influenza virus H5N1).
Assay [13] concerns the target HA of H5N1 virus strain H2 (avian influenza virus H5N1).
The target of assay [14] is HA of H5N1 virus strain A4 (avian influenza virus H5N1).
Assay [15] deals with HA of H5N1 virus strain B8 (avian influenza virus H5N1).
Assay [16] concerns the target HA of H5N1 virus strain C1 (avian influenza virus H5N1).
The target of assay [17] is HA of H5N1 virus strain C3 (avian influenza virus H5N1).
Assay [18] concerns the target HA of H5N1 virus strain E1 (avian influenza virus H5N1).
Assay [19] has as its target HA of H5N1 virus strain H1 (avian influenza virus H5N1).
The target of assay [20] is HA of H5N1 virus strain D1 (avian influenza virus H5N1).
Assay [21] concerns the target HA of H5N1 virus strain C2 (avian influenza virus H5N1).
The target in assay [22] is HA of H5N1 virus strain G1 (avian influenza virus H5N1).
The target of assay [23] is HA of H5N1 virus strain B4 (avian influenza virus H5N1).
The target of assay [24] is HA of H5N1 virus strain B7 (avian influenza virus H5N1).
For assay [25], the target named is HA of H5N1 virus strain E2 (avian influenza virus H5N1).
Assay [26] deals with HA of H5N1 virus strain B5 (avian influenza virus H5N1).
The target in assay [27] is HA of H5N1 virus strain B3 (avian influenza virus H5N1).
Assay [28] concerns the target HA of H5N1 virus strain A5 (avian influenza virus H5N1).
The target of assay [29] is HA of H5N1 virus strain D2 (avian influenza virus H5N1).
In assay [30] the target is HA of H5N1 virus strain B2 (avian influenza virus H5N1).
For assay [31], the target named is HA of virus strain CK/IDN/2A/04 (avian influenza virus).
The target of assay [32] is HA of virus strain CK/HK/213/03 (avian influenza virus).
The target in assay [33] is HA of virus strain DK/IDN/MS/04 (avian influenza virus).
In assay [34] the target is HA of virus strain Oriental Magpie Robin/HK/366/2006 (avian influenza virus).
The target in assay [35] is HA of virus strain CP Heron/HK/18/05 (avian influenza virus).
Assay [36] addresses HA of virus strain BhGs/QH/15/05 (avian influenza virus).

Where only a bound is given, the exact number is not on record here.

B1: monoclonal antibody 2F2 (antibody, V domains shown)
VH: QVQLKESGPGLVAPSQRLSITCTVSGFSLTGYGVHWIRQSPGKGLEWLGMIWAEGRTDYNSVLKSRLSINKDNSRSQVFLEMNSLQTDDTARYYCAREVITTEAWYFDVWGQGTSVTES
VL: DIVMTQSPATLSVTPGDRVSLSCRASQSISDYLYWYQQKSHESPRLLIKYASQSISGIPSRFSGSGSGSDFTLTINSVEPEDVGMYYCQNGHTFPLTFGAGTKLEIKR
For the molecule B1, the HI assay: positive number/total virus number (of 14 strains) in assay [1] amounted to 0. The molecule also came in with an HI assay: positive number/total virus number (of 34 strains) in assay [2] of 28.

B2: 4D1 chimeric antibody (antibody, V domains shown)
VH: QVQLQQPGAELVKPGASVNLSCKASGYTFTSYWMHWVKQRPGQGLEWIGEIDPSDSFTTYNQNFKDRATLTVDKSSSTAYMQLRSLTSEDSAVYYCARGGPGDFRYAMDYWGQGTSVTVSS
VL: DILMTQSPSSMSVSLGDTVSITCHASQGISSNIGWLQQKPGKSFKGLIYHGTNLEDGVPSRFSGSGSGADYSLTISSLESEDFADYYCVQYVQFPYTFGGGTKLEIKR
On to B2, for which the HI test result in assay [3] is 1 n; in assay [4] it was 5.5 n; in assay [5] it was 5 n; in assay [6], above 8 n; in assay [7], 4.5 n; in [8] it was 6.5 n. Moreover, the HI test result in [9] is 5.5 n; in [10], 1 n; in assay [11], 5.5 n; in assay [12], 4 n; in assay [13] it was 1 n; in assay [14], 6 n. Further, the HI test result amounted to 4 n in [15]; 7.5 n in assay [16]; 4 n in [17]; 5.5 n in assay [18]; 1 n in assay [19]; 5 n in assay [20]. Further, the HI test result in assay [21] stood at 6 n; in assay [22], 1 n; in [23], 5.5 n; in assay [24], 7 n; in assay [25], 7.5 n.

B3: 10F7 chimeric antibody (antibody, V domains shown)
VH: QVQLQQPGAELVKPGASVKLSCKASGYTFTSYWMHWVKQRPGQGLEWIGEIDPSDSYTNYNQKFKGKATLTVDKSSSTAYMQLSSLTSEDSAVYYCARGGTGDFHYAMDYWGQGTSVTVSS
VL: DILMTQSPSSMSVSLGDTVSITCHASQGISSNIGWLQQKPGKSFKGLIYHGTNLEDGVPSRFSGSGSGADYSLTISSLESEDFADYYCVQYVQFPYTFGGGTKLEIKR
In the case of B3, the HI test result is above 8 n in assay [3]; 5.5 n in assay [4]; 6.5 n in [5]; above 8 n in [6]; 5 n in assay [7]; 6 n in assay [8]. For the same molecule, the HI test result was 7 n in [9]; 2.5 n in assay [10]; 6.5 n in assay [11]; 5.5 n in assay [12]; 8 n in [13]; 7 n in [14]. Also, the HI test result was 4.5 n in [15]; above 8 n in assay [16]; 2.5 n in [17]; 6 n in assay [18]; 5.5 n in assay [19]; 2.5 n in assay [20]. The HI test result in assay [21] was 6 n; in [22], 6.5 n; in [23], 6 n; in assay [24] it was 7 n; in [25] it was above 8 n.

B4: 4D1 single chain antibody (scFv)
scFv: QVQLQQPGAELVKPGASVNLSCKASGYTFTSYWMHWVKQRPGQGLEWIGEIDPSDSFTTYNQNFKDRATLTVDKSSSTAYMQLRSLTSEDSAVYYCARGGPGDFRYAMDYWGQGTSVTVSSGGGGSDILMTQSPSSMSVSLGDTVSITCHASQGISSNIGWLQQKPGKSFKGLIYHGTNLEDGVPSRFSGSGSGADYSLTISSLESEDFADYYCVQYVQFPYTFGGGTKLEIKRA
B4: the HI titer (n) (n (dilution 2^n)) was 0 in assay [26]; above 8 in assay [27]; above 8 in assay [28]; 3 in assay [3]; above 8 in assay [4]; 7.5 in [29]. For the same molecule, the HI titer (n) (n (dilution 2^n)) in assay [5] was above 8; in assay [6], above 8; in [7], 7; in [8], above 8; in [9] it was above 8; in [10], 5. Moreover, the HI titer (n) (n (dilution 2^n)) in assay [11] is above 8; in assay [12], 6; in [13], 4; in assay [15], above 8; in assay [30], 0; in assay [17] it was above 8. Moreover, the HI titer (n) (n (dilution 2^n)) in [18] was 1; in [19], 6; in assay [20] it was above 8; in assay [21], above 8; in assay [22] it was 3.5; in assay [23] it was above 8. In addition, the figures for the HI titer (n) (n (dilution 2^n)) in assay [24] and in assay [25] were above 8 and 1, respectively.

B5: 10F7 single chain antibody (scFv)
scFv: QVQLQQPGAELVKPGASVKLSCKASGYTFTSYWMHWVKQRPGQGLEWIGEIDPSDSYTNYNQKFKGKATLTVDKSSSTAYMQLSSLTSEDSAVYYCARGGTGDFHYAMDYWGQGTSVTVSSGGGGSDILMTQSPSSMSVSLGDTVSITCHASQGISSNIGWLQQKPGKSFKGLIYHGTNLEDGVPSRFSGSGSGADYSLTISSLESEDFADYYCVQYVQFPYTFGGGTKLEIKR
Consider B5, for which the HI titer (n) (n (dilution 2^n)) in assay [26] was 0; in assay [27], above 8; in [28], above 8; in assay [3], 0; in [4] it was 6; in [29], 2.5. Moreover, the HI titer (n) (n (dilution 2^n)) was above 8 in assay [5]; 7 in [6]; 7.5 in assay [7]; 7 in assay [8]; above 8 in assay [9]; 0 in assay [10]. For the same molecule, the HI titer (n) (n (dilution 2^n)) was above 8 in assay [11]; 6.5 in assay [12]; 0 in [13]; 7 in assay [15]; 0 in [30]; 1 in [17]. Besides, the HI titer (n) (n (dilution 2^n)) was 0 in assay [18]; below 1 in [19]; 2.5 in assay [20]; 2 in assay [21]; 0 in [22]; above 8 in assay [23]. Further, the HI titer (n) (n (dilution 2^n)) in assay [24] was 7; in assay [25] it was 0. The neutralization test: dilution of 10F7 scFv (fold dilution) in assay [31] is 32; in [32], below 1; in assay [33], 16; in [34], below 1; in assay [35], 8; in assay [36], 16.

The values are drawn from patent publication US20090068637A1.
